Measurements taken from the RNAGym collection of RNA variant scans (doi:10.1073/pnas.2313332121).

B1: TPR t1 (parent)
chain: GACCAAUCUGCCCUCAGAGCUCGAGAACAUCUUCGGAUGCAGAGGAGGCAGGCUUCGGUGGCGCGAUAGCGCCAACGUCCUCAACCUCCAAUGCAUCCCACCACAUGAUGAUGCCUGAAGAGCCUUGGUUUUUUG

Variants of: B1
Assay: polymerase ribozyme fitness, log enrichment relative to wild type (log ratio); higher = more active; in vitro selection for triplet polymerase activity
How it was run: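 Libraries of mutants in each subunit of a heterodimeric triplet polymerase ribozyme were generated by PCR and transcribed. In triplicate, each went through one in vitro selection round: annealing with biotinylated primer, partner subunit and triplets; frozen incubation at −7 °C; gel excision of extended constructs; streptavidin-bead capture; RT-PCR. Fitness, taken from Illumina sequencing of input and output libraries, is the logarithm of a genotype's enrichment over wild-type enrichment, averaged across replicates with inverse-variance weights. The logarithm is base 2, and genotypes needed ≥10 input reads and ≥1 read per output to be kept.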

Variant	polymerase ribozyme fitness (log ratio)
A5G C53A U59A G77U C94U	-0.908
A5C C8U C62U	-0.266
A5C G10A U92G	-3.52
A5C G10A C34A C123U	-0.78
A5C U109A	-4.8
C4U C22G A43U G48U C49U C97U	-4.83
C4U C56A C114A C124U	-3.31
A5G G36U G63C A111C A119C	-4.21
A5G C49A C115U U132A	-0.466
C4U G48A G52A U92A	-5.54
A5C C49U C53A C73U	-0.789
C4U C49U C97U G128U	-2.93
A5C A90U	-2.01
C4U U87C	-0.694
A5C G45U G93A A121U	-0.00844
C4U U7G A27U A119G	-1.81
C4U U21A C115G	-4.19
C4U C88A	-0.437
A5C G120C	0.663
A5C G120A	0.639
A5U A27G G44U A118U	-4.64

Variant	polymerase ribozyme fitness (log ratio)
A5C U7C G57U C99U U112A	-3.19
A5G C82G	-0.685
A5C C8G C12U C72U C94A	-1.48
A5G U78C C80A	-2.8
A5C C12A A43G G60C	-4.18
A5C C15U G60C U96A	-2.98
A5G G42U C56G A91C C115G	-3.59
A5G C13G G51A U112C	-1.39
C4U C79A U92C	-3.5
A5C C53U	-1.88
A5C C22A G69U C80U C114A	-1.41
C4U C56G A111U	-2.42
C4U G48C G69C C101G	-4.61
A5U A18C C124U	-0.683
A5G C13G A18C G35U A75G C79U A119G C123G U130C	-7.55
C4U G45C	-2.12
A5G G63A	-1.41
A5C G17U A50C C88A	-4.51
A5G C28G U78A U96C G110U	-0.656
A5C G17A A41G C53A C56A C70U G71A U112C	-6.41
A5G G71U A111C G127A	-1.59

Variant	polymerase ribozyme fitness (log ratio)
A5C A29U A121G	-0.781
A5U A18C A111C	-2.56
A5G G61A U78A A84C U129A	-1.36
C4U U7A G69A	-2.49
A5U A27G G60U	-4.01
A5G G17U A18G A100C A121G C124G	-3.51
A5G U109G C123G U130C	-4.03
C4U G47U U112C	-0.0324
A5G A24G A29C G36C G61A C70U G113A	-5.67
C4U G44U C72A	-0.827
A5G G57U U78G U106A G110A	-1.97
A5C A29G C49G C70A U92C G117U	-7.38
A5G C8U G63U C70A C86G	0.268
A5G C12G C34U C72A A95C	-5.52
A5C G60A C89G G93A A111G	-4.73
A5C C13U C70U A84C U131A	-1.24
C4U G60A	-0.911
A5C G60U	-1.18
A5U A6C G57U C123U	0.75
A5C G71C C89U G117U U131C	-5.27
A5U A6G G45C G69U A95U	-2.34

Variant	polymerase ribozyme fitness (log ratio)
A5C C56U C73A C115G G117A	-7.51
A5C G17A G127U	-4.89
A5C G17A G36U	-5.9
C4U U7G C22G U55G A91C C124A	-3.16
A5C C82A C101G	-3.77
A5C C22A C88G	-5.51
C4U U7A G93C C102A	-3.52
A5U A16C G57C G69A G93A	-6.66
A5G C13U A43U G71A C124U	-1.48
C4U U38A G45U C49G G71A	-4.53
A5C C13A C70U U87A	-3.43
A5G U38G G39C	-3.2
A5G A50U G63A G117A	-6.03
C4U C114G	-2.65
A5G C12U G39U	-0.29
A5G G69A	-2.1
A5G G69U	0.484
A5G G69C	-1.4
A5G U78A A95C U106G	-3.66
A5G C20U C53A G58A C99U	-4.64
A5G A6C	-0.0257
